The record followed here is patent US20220048991A1 (BIOND BIOLOGICS, published 2022).

By Kd is commonly meant the free concentration of one partner at which half of the binding sites on the other are occupied at equilibrium, for simple one-to-one binding. As usually defined, the koff is the rate constant with which the complex falls apart. A word on the kon: it is the rate constant with which the complex forms.

Assay [1] deals with T1, recombinant ILT2 (human) (human, UniProt Q8NHL6 24-461).
T1 construct: also called recombinant ILT2 peptide; ILT2 protein
The assay is described as follows: SPR (Biacore T200), HEK EBNA supernatants on recombinant ILT2 peptide. The protocol: (§1) During grafting of the 15G8 CDRs, five heavy chains and four kappa light chains were generated. These chains were designated VH1-5 and Vk1-4. By combining each heavy chain with each light chain twenty different resultant antibodies are possible. All twenty possible antibodies were transiently expressed in HEK EBNA cells, and the supernatants were tested for binding to recombinant ILT2 peptide using a Biacore T200. The chimeric 15G8 antibody was used as control.
For orientation: In SPR one partner is held on a chip, and binding of the other changes the refractive index at the surface.

Assay [2] addresses T1, recombinant ILT2 (human). The assay can be described thus: SPR (Biacore T200); KD relative to Control (chimeric 15G8). The method, then: as §1

T1 sequence (Q8NHL6 24-461 limits assumed): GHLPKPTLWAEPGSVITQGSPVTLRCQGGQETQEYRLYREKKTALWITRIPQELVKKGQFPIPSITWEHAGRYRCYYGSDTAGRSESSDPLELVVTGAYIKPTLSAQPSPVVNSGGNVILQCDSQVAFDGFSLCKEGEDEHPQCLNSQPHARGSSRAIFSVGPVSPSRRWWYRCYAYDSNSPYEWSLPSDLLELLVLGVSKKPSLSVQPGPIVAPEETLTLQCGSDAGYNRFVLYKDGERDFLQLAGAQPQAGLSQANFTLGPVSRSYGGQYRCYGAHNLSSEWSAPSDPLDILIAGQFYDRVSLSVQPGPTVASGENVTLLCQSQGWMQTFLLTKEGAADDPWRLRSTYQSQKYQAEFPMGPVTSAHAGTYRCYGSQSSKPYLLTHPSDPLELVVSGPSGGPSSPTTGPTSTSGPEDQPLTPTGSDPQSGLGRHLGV

B1: 15G8-23 (humanized 15G8, VH2/Vk3) (antibody, human IgG4 S228P, kappa, V domains shown)
VH: DVQLQGSGPGLVKPSETLSLTCSVTGYSITSGYYWNWIRQFPGKKLEWMGYISYDGSNNYNPSLKNRITISRDTSKNQFSLKLSSVTAADTATYYCAHGYSYYYAMDAWGQGTTVTVSS
VL: DIQMTQSPSSLSASVGDRVTITCRTSQDISNYLNWYQQKPGKAVKLLISYTSRLHSGVPSRFSGSGSGTDYTLTISSLQPEDFATYYCQQGNTLPTFGQGTKLEIKR
notes: Humanized IgG4 (S228P, L235E), kappa
As for B1, in the assay with recombinant ILT2 (human) [1], the Kd stood at 8.31 nM, the koff worked out at 0.0076 s⁻¹ and the kon worked out at 915000 M⁻¹ s⁻¹. The “Relative KD” value with recombinant ILT2 (human) [2] worked out at 0.66.

B2: humanized 15G8 VH4/Vk2 (antibody, IgG4, V domains shown)
VH: QVQLQGSGPGLVKPSETLSLTCSVTGYSITSGYYWNWIRQPPGKGLEWMGYISYDGSNNYNPSLKNRVTISRDTSKNQFSLKLSSVTAADTATYYCAHGYSYYYAMDAWGQGTTVTVSS
VL: DIQMTQSPSSLSASVGDRVTITCRTSQDISNYLNWYQQKPGKAVKLLISYTSRLHSGVPSRFSGSGSGTDYTLTISSLQPEDFATYFCQQGNTLPTFGQGTKLEIK
notes: Humanized IgG4 (S228P, L235E), kappa; tested as supernatant of transiently transfected HEK EBNA cells
B2: in the assay with recombinant ILT2 (human) [1], the Kd amounted to 9.93 nM, the koff came to 0.00685 s⁻¹ and the kon was 690000 M⁻¹ s⁻¹. Moreover, the “Relative KD” value with recombinant ILT2 (human) [2] is 0.79.

B3: 15G8-53 (humanized 15G8, VH5/Vk3) (antibody, human IgG4 S228P, kappa, V domains shown)
VH: QVQLQGSGPGLVKPSETLSLTCTVTGYSITSGYYWNWIRQPPGKGLEWIGYISYDGSNNYNPSLKNRVTISRDTSKNQFSLKLSSVTAADTATYYCAHGYSYYYAMDAWGQGTTVTVSS
VL: DIQMTQSPSSLSASVGDRVTITCRTSQDISNYLNWYQQKPGKAVKLLISYTSRLHSGVPSRFSGSGSGTDYTLTISSLQPEDFATYYCQQGNTLPTFGQGTKLEIKR
notes: as for B1
On to B3, for which, in the assay with recombinant ILT2 (human) [1], the Kd was determined as 10.6 nM, the koff came to 0.0072 s⁻¹ and the kon is 682000 M⁻¹ s⁻¹. Besides, the “Relative KD” value with recombinant ILT2 (human) [2] amounted to 0.84.

B4: 15G8-54 (humanized 15G8, VH5/Vk4) (antibody, IgG4, V domains shown)
VH: QVQLQGSGPGLVKPSETLSLTCTVTGYSITSGYYWNWIRQPPGKGLEWIGYISYDGSNNYNPSLKNRVTISRDTSKNQFSLKLSSVTAADTATYYCAHGYSYYYAMDAWGQGTTVTVSS
VL: DIQMTQSPSSLSASVGDRVTITCRTSQDISNYLNWYQQKPGKAPKLLISYTSRLHSGVPSRFSGSGSGTDYTLTISSLQPEDFATYFCQQGNTLPTFGQGTKLEIK
notes: as for B1
On to B4, for which, in the assay with recombinant ILT2 (human) [1], the Kd was found to be 10.3 nM, the koff came out at 0.0117 s⁻¹ and the kon is 1.14e+06 M⁻¹ s⁻¹. In the assay with recombinant ILT2 (human) [2], the “Relative KD” value came to 0.82.

B5: 15G8-32 (humanized 15G8, VH3/Vk2) (antibody, human IgG4 S228P, kappa, V domains shown)
VH: DVQLQGSGPGLVKPSETLSLTCSVTGYSITSGYYWNWIRQPPGKGLEWMGYISYDGSNNYNPSLKNRITISRDTSKNQFSLKLSSVTAADTATYYCAHGYSYYYAMDAWGQGTTVTVSS
VL: DIQMTQSPSSLSASVGDRVTITCRTSQDISNYLNWYQQKPGKAVKLLISYTSRLHSGVPSRFSGSGSGTDYTLTISSLQPEDFATYFCQQGNTLPTFGQGTKLEIKR
notes: as for B1
As for B5, in the assay with recombinant ILT2 (human) [1], the Kd amounted to 8.19 nM, the off-rate constant (koff) came out at 0.00664 s⁻¹ and the kon came out at 811000 M⁻¹ s⁻¹. For the same molecule, in the assay with recombinant ILT2 (human) [2], the “Relative KD” value stood at 0.65.

B6: 15G8-44 (humanized 15G8, VH4/Vk4) (antibody, IgG4, V domains shown)
VH: QVQLQGSGPGLVKPSETLSLTCSVTGYSITSGYYWNWIRQPPGKGLEWMGYISYDGSNNYNPSLKNRVTISRDTSKNQFSLKLSSVTAADTATYYCAHGYSYYYAMDAWGQGTTVTVSS
VL: DIQMTQSPSSLSASVGDRVTITCRTSQDISNYLNWYQQKPGKAPKLLISYTSRLHSGVPSRFSGSGSGTDYTLTISSLQPEDFATYFCQQGNTLPTFGQGTKLEIK
notes: as for B1
B6: in the assay with recombinant ILT2 (human) [1], the Kd was found to be 13.5 nM, the koff is 0.00977 s⁻¹ and the kon worked out at 724000 M⁻¹ s⁻¹. Besides, in the assay with recombinant ILT2 (human) [2], the “Relative KD” value was 1.07.

B7: 15G8-34 (humanized 15G8, VH3/Vk4) (antibody, IgG4, V domains shown)
VH: DVQLQGSGPGLVKPSETLSLTCSVTGYSITSGYYWNWIRQPPGKGLEWMGYISYDGSNNYNPSLKNRITISRDTSKNQFSLKLSSVTAADTATYYCAHGYSYYYAMDAWGQGTTVTVSS
VL: DIQMTQSPSSLSASVGDRVTITCRTSQDISNYLNWYQQKPGKAPKLLISYTSRLHSGVPSRFSGSGSGTDYTLTISSLQPEDFATYFCQQGNTLPTFGQGTKLEIK
notes: as for B1
For the molecule B7, in the assay with recombinant ILT2 (human) [1], the Kd came out at 12.6 nM, the koff came to 0.00832 s⁻¹ and the kon came out at 661000 M⁻¹ s⁻¹. Moreover, the “Relative KD” value with recombinant ILT2 (human) [2] was 1.
